Measured values: the DeepSol protein solubility set

Experiment: soluble on expression in E. coli; label from the status in PepcDB or PDB records

Sequence	soluble on expression in E. coli
MGSDKIHHHHHHMNMKVLLVNPVGEWGGAEKIFFLVSQIFQKTGFELYVLLGSRGILYEKLRNLNFNISIMNFPDLSENSIVIAGRRFQLPHHLLKNLRKIKILSKKFWDYLRILKPDIIYLNNLRSLVLYYETVRTYGKPCEAVVIWHEHGYQRSIIRQLILDKIYLKFVDAVICVSKHLANKHLKDVQQKLYVVHNGIPDELNAIEKENVRYEYNNNKVLIIHPAFITYWKGQHLALKAVDLLVKRGVRNFEIWFFGEPRSKQDYKYFKKLKQFVRSKNLEKQVFFKGFSANIIDEMLKADIVISTSVEDDPFPTILLEASMIGKPVVTTDAGGSGEIVKNGETGFVVKKDKRELASALCELIQNKELRDVFSKNARDRFLKEFSILAFEKRFLETLESILRR	not soluble
MGSDKIHHHHHHMNMKYQHIIEVDKELCIGCGLCKNDCPVNNIIIENKKSVIKKQDCLMCGHCAAICPTKAITLTGFDEPPIELTNKPKLDSDELLMAIKSRRSIRKFKDKEVSSEIIKQIIEAGRYTPSAKNSQDVSYIVLDNKKSIYENEAVKFFRKIKPIANIAIKYSKEVEIDDNFFFKHAPIAIMIITKDKISGSLAASNMALMAESYGLGVLFSGYFSDVANNSPKLKKLLGLKRSNHVLTTLVIGYPDVKYRRTAQKEVATVRYL	not soluble
MGSDKIHHHHHHMNNFNNEIKLILQQYLEKFEAHYERVLQDDQYIEALETLMDDYSEFILNPIYEQQFNAWRDVEEKAQLIKSLQYITAQCVKQVEVIRARRLLDGQASTTGYFDNIEHCIDEEFGQCSIASNDKLLLVGSGAYPMTLIQVAKETGASVIGIDIDPQAVDLGRRIVNVLAPNEDITITDQKVSELKDIKDVTHIIFSSTIPLKYSILEELYDLTNENVVVAMRFGDGIKAIFNYPSQETAEDKWQCVNKHMRPQQIFDIALYKKAAIKVGITDV	not soluble
MGSDKIHHHHHHMNNKKIFLFEFTVGTGLVPDELLAEGKLMFDILLNQFLDENYTVKTVLCEKIAKKYPKYNEINNLEIIVSDNYINSFKEGLDDSDFALAIAPEEDLILYNLTELIEESGCLNLGCEKSGVKIAGDKFLTYEAIKNAVNTPKTFPVKKYVVKNRLGCDSTHDTFDENYIVQEFIEGEPYSVIFIAKNKKFYPVCMNKQYIEKRYCGGEINIEHTLKEKAIIECKKTLEKIEGINGYVGVDLMINGEEISILEVNPRITTSICGIKSKPSIGKLLIDNALEKDIKFEVESCLKFKRNDFGFEFL	not soluble
MGSDKIHHHHHHMNNLYHLKVRCSSLHKIIGEPKSKADKEAGKLTDTAKSAVREMAKFDLFGYNAFEGNKYTQKGNELEEQAIKLSGVTRGLALKKNTERRENEFITGECDIYVPSRKLIIDTKCSWDIGSHPFFTDEAQEKAKKAGYDIQMQGYMWLWDCDQAQIDFVLFPTPLNLISAYDSDFKLIDLVEQIPQIRRITTVIIQRDNELIDKIKERVSAAQKYYDQLISEMS	not soluble
MGSDKIHHHHHHMNNVLILYPKLFNCYSKFSRKVLKITSSLGAATLVYPDDPNGLIEKFCEESSGKMTNKEFPNWTPDDITHAIIFDDGEEFIEETERLKESKKPLRLIGICITRVINIKTETEYQSEKSTPIYEYIGRGSYWGNPYSMFEEGEDREEVIRKYKYDFDFEKFPNKEKSEVYKLAGKRLGCFCKPQACHGDVLADFLNSWDDGK	not soluble
MGSDKIHHHHHHMNQIINDNYREFLKKLRERHLKKRKVKDKNKPIAVWMQDDIYRDFSIGKSLTIILRTEGCYYAKEGGCLMCSYLMDSSPEKITAENIINQFNYAIEKYKEKIKDLKDFSVKIFTSGSFLDDREVPKEARNYIFKKLSEFDNLKEVAIESRPEFIDEDKLNEIRKYLDVNVEIGVGIESFNEEIREKAINKGITNEQIIRAIELAKNYNIGIKAYLLIKPLFITEKEAIYDSISSANKCIELGCSRISFCPATVHKGSVMEFFFNKNQYRPPFLWSIIEILKEVKKSNPKALIMCDTSGVGSERGAHNLYNCKCNKLIKERLERFTLTQDINVLNVECECKNIWNAYIEVENKNIVPLGDERKLLL	not soluble
MGSDKIHHHHHHMNRMAGCINDHLKRYGGLAAGREDEQKRYFAEKRLYALQIETTDACQQGCIFCYAGSTPREHHGLTSDEIRGLLRDAAALEIRAIDWLGGDPLVRPDWYELMQYARSLGLVNNVWTSGLPLKSKEVAARVHEVSEGGFVSVHVDSITPEVYAKLHRGGNPHFIEAIVEGVDNLLALGKPADMMINCITYTSLQGPEDAIKTMRWWFCEKGLRTCLTMFNPAGMGAEWRSLEPQLDEVQRVYTERDRIDYGGDNISIAAMDTDKYYCGTMATVTFTGDVTPCSVIREGVANIRTTPFRDIVARHLDTLVHAALHDVQNLPNPCNDCVNNAHCWGCRASAYHYSGDADGLDPKCWLIRTALTSDSFSVNNNLQKSTDEEIGLKP	not soluble
MGSDKIHHHHHHMNSKLSLSTKLSSSGKTQLAEYFATPPFKVITLPSYDDAWANGLNAMQMSSSPGVLAGDLLEIDISLAKLTALSLNTQAFTRVQAMNEGDSAMQTTHILLAENSRLFYLPHPLVLHRDSVFKQQTQIEMGEQSELIYGEIVAIGRVLNDERFAFRQFSSHLKIYALQNDGKKRPLVSDCIQWLPSKMNLTALSQMENYSHQGSLTYLNLAKNNAEIKQQVQALQQQSTEEKDLLIGISQLNEYGLMVRVLGCRAEANSEII	not soluble
MGSDKIHHHHHHMNSLQSTHPPKLNSCDRQVILDYFENAWQLEDMLMKTLVEEDTFYLNPDPLRNPLIFYLGHSAVFYINKLISVGLLEKRINPDYEILFEIGVDPEVPEELNQAIAHLEWPQVAQTWEYRKQAYTVIAEVIKTTPITLPIHPTHPLWALMMGIEHQRIHIETSSMLIRQLPIERVKRPQNWQYAPFNGYTAQNEMIQVIGGVVKLGKAFNDPTYGWDIDYGDRTVEVEPFLASKYLITNADFSYFVKAGGYENQAYWDEESWHWKTENNIQYPKFWIHQNGIYKYRAMFDEIDLPLDWPVEVNHYEAMAYCCWQGKDTRLMSEAEYHLATYGSGLVEDVDNYNVNLKFGSPSPVGMLETAKSYSGLYDLRGNVWEHLSDNLNPLPGYKPHFLYEDNSAIFFDNKHQMMLGGCWITNGTEALKYYRNWFRPNFYQHAGFRIVQDMKH	not soluble
MGSDKIHHHHHHMNSLSFDFSDDFRPLAAKMRPRCLADYIGQSHLLGKDKPLRRAIEAGYAHSMILWGPPGTGKTTLAEIIAQHFDAEVERLSAVTSGVKEIREAIEQAKYNRQAGRKTLLFVDEVHRFNKSQQDAFLPYIEDGTVIFIGATTENPSFELNNALLSRARIYLLKPLQADEIEQILQNALQDKQNGLGQEHFILADEVLKLLADYVNGDARYALNCLALMADMAESSPQGKVLNQALLIAVLGERNARFDKGGDHYYDLISALHKSIRGSAVDAALYWYARILTAGGDPLYVARRLLAIASEDIGNADPRAMQIAISAWDCYSRVGAYEGERAIAQAVIYLAVAPKSNAVYQAFNQAKQLAKQAKDYDVPLHLRNAPTALMKSLAYGEEYRYAHNEANAYAAGENYFPEQLQDTQFYFPTERGMEKQIKEKLAWLKMQDHASEQQRYKR	not soluble
MGSDKIHHHHHHMNSTITPTLNLKAQHAERRVVVTGASGYVGARLVVELLSTGFNVRATSRSLSSLKRFPWYDQVEAVEADLSISEDVNRLFEDVDTVFYLVHSMSGTQNFEELESKIASKVAQAAHSNGVRQIIYLSGLHPRTELDKLSPHMRSRENVARILGSTAVPAITFRAATLIGSGSASFEMIRHLTERLPIMVAPQWINNKIEPISIRDTLYYLVKAADLPEPINEEFDIGSGHIYTFADLLRIYGKIRGLRRTIVSLPIPLPLDTLSGLWIAAITPAPLSLAQPLAQSMQEDAICSNRSIRDYISDPPSGLADYPTSVRRALQQESMGVLSSWDSSWKNLSSTDHLPSDPEWTGRTVYSDVQEQSFRSEPAKVWRVIEGIGGHHGWYSTPLLWFVRGVIDKAIGGPGLGGRRDPNRLRVGDRVDFWRVEEVTPEKQLTLRAEMRASGQAWLQFTINGNTLRQRAVYFPKGLLGRVYWLALIPFHAVIFPTMLRNIIQAGDN	not soluble
MGSDKIHHHHHHMNTDIAKNTNSLNDDKKSNSEQRPYGIVLYGATSFVGQITAHYLAEFLSTSKDASGTTVTWAIAGRDEKKLNELQSKLASKVNIIIANSDDATSLDELTEQTQVIISTVGPYLKYGEPLIKSCVDNGTDYVDLTGEAIFIKDMIDKYQEAAKQSGARIVNSCGFDSIPSDLGVYFTQKQAEAKFDSACDVIHMRVKAAKGGLSGGTIASMATIFEEVGQDKSRRKQVANPYLLNDDKDVPNVRQSNVSKPEYDSEHKRWLAPFVMASINTRIVHRSNQLLGYEYGRDFKYDEAMWMKDGIKGKLTSYALSAGLLGFATAMMITPSRELLSKHVLPKSGSGPSKEEQENGYFDIRLFGKTANKETIATKVTGDKDPGYGSTSRMLSQAALCLAQDISKEAVGGGFWTPASAMGDKLLARLKEHAGLSFDVIDR	not soluble
MGSDKIHHHHHHMNTHNILIIGQGDIGLPVTNKLAQNGVNVTGLARRKRQNYALSDHAKFMQADALTLSPEQLQDFTHIAIIVTPDEYSTSGYHNSYLAINQHLALLADKLSNLQRVVFISSTGVYGQDNGEWIDEDTVPMLPEREASQVILQAEQALQQVFHDRAIIIRPSGIYGRARLMRVRKAKEPQKQPIAAGAWTNRIMDSDLVNIIAKVLTIKAPKPIYIATDYLPVTSFALTTWLSEQLDEALPVLDDKNSVMTGKRLHSNIPLSWLMYPDWQIGYQDILRHQD	not soluble
MGSDKIHHHHHHMNVLASKDFRTEKRPLPFECIALVLQGGGALGAYQAGVYEALAEADIHPDWVAGVSIGAINSAIIAGNEPTERVPKLRAFWREISANPLLDWAAASPALAPTGTLPRLLFNQFSAACALVAGAPGFFSLRQPVPWLQADGSLEGTSFYETKHLKSTLERLVDFDRINAGRMRFSVGAVNVRSGNFVYFDNDQHTIRPEHVMASGSLPPGFPAVEIDGEFYWDGGLISNTPLQWVVEHGARQDTLAFQVDLWSARGEFPRNLSEVATRQKEIQYASRSRAHTDQFKQYQRARHTLASLLSKLPPELLDSEEATALSSIADHKVYKLVHLTYRSKQHEGHSKDHEFSRLSMEEHWRAGYFDAVRTLRHPEALLRPDNLEGVSTYDLAEDGRE	not soluble
MGSDKIHHHHHHMNVLLSRKDTIRFLILSELMVNPECNQRDIAKKLGLTPQAISEHFKEMVSEGFINVVHKGYYEVTRKGEEWMSRNLIDLHLFSEELLKKIYSKTVVAIAKGRIAENDSVRYWFGDGYIFAERSAKGNGVALTSAEDGEDVLIKPTGSFEPPEKGEIIIVKVPGVAEGGSRKVDLDSFRELVKSRPTSIVVAIGIEALVTCRKIRVEPIFFGAKEVCIEAAHHGSGVIVACTESMLNDLLRSLIDEGLEFEIKEFVKAT	not soluble
MGSDKIHHHHHHMNVLYVTVDALRADHVTPELMPNVSGFVDRSIEYERCYANGPGTPWSFPALLGSQYSGANDGVGIPGEDDSRPTLAEVLRDEGYETAGFTDNHFASSDYNYDRGMTTMFDAGATSSEKRLKQAVRKRLDHDGTLYQMLLRGHHLIDDLLVKIQGRDTRFTRAETLIDSLVDWIDERNDQWFAWLHPMDTHAPYEAPDDYQEQFLDEPIPRRRSQKLARKATHHPDELSDDEWELQQQLYKAECSYLDDQIGRLLDSFPEPERENTLLVFTADHGEMHGEHGLGGHPQQFWEEVIHVPCAISAPGFEATTVNEQAALIDIPPTILDAVGIDAPEYWDGMSVLPDEGTVQEREYVFVDVESELNRNHAGVRRSDNWKLMRHDDEGELLLDLDTNPEEDPEQTRLNDAPEAYRALTDSLDNHLDEMERRRSGETSGIEDEELIEDHLRELGYLE	not soluble
